Experimental data taken from patent US20230355813A1, “Theranostic Silicon-Fluoride Heteroaromatic Systems and Methods Thereof” (Fuzionaire Diagnostics, Inc., priority 2022, published 2023).

Legend:
[1] = pH 10
From the text: Brief descriptions of each property and the characterization of each property are stated below. • a) Hydrophilicity. Hydrophilicity relates to the strength of being dissolved in or absorbed in aqueous solutions. It denotes a preference for liquids, solutions, or surfaces with a high dipole moment, like water. Lipophilicity denotes a preference for liquids, solutions, or surfaces with a low dipole moment, such as lipid solutions. The more polar the HetSiFA, the less masking of the lipophilicity may be needed in the radiopharmaceutical via introducing cumbersome and lengthy linkers. The hydrophilicity of HetSiFAs is assessed by calculating and/or measuring the octanol/water partition coefficient log P. Log D measures the lipophilicity of ionizable compounds, where the partition is a function of the pH. The reversed-phase HPLC retention times tR can be used to qualitatively compare the polarity of HetSiFAs. • b) Hydrolytic stability. […] At different time points, the substrate is quantified by HPLC UV monitoring. […] The hydrolysis is monitored by HPLC (˜7 timepoints). […] In addition, the stability of compounds can be assessed in rat and human plasma and in microsomes. • c) Radiolabeling. […] The radiolabeling properties of synthesized HetSiFAs can be assessed using low amounts of radioactivity. […]

[2] = stability in solution / on storage (observations); format: physicochemical; settings: prolonged storage
[3] = ex vivo biodistribution in healthy mice; settings: for bone uptake: ex vivo biodistribution, 3 healthy Balb/c female mice, indicates Si-18F bond stability in vivo
FIG. 26 = test: FIG. 26
From the text: Table printed on a drawing sheet, FIG. 26
The patent's description of the figure: FIG. 26 illustrates HSA binding assay results of HetSiFA compounds in accordance with an embodiment of the invention.
FIG. 26 illustrates human serum albumin (HSA) binding assay results of HetSiFA compounds in accordance with an embodiment. A standard curve can be first established using reference compounds (See, e.g., Valko, K. et al., J. Pharm. Sci. 2003, 92 (11), 2236-2248; Wurzer, A. J. et al., PSMA binding dual mode radiotracer and therapeutic. 2020, WO2020157177A1; the disclosures of which are herein incorporated by reference.) The HSA binding assay results include four HetSiFA theranostic compounds, FTX-164, FTX-165, FTX-168, and FTX-181 (structures shown in FIG. 26), and two therapeutics Lutathera and Lu-NeoB. […] Test condition of the HSA binding assay includes: Column: Chiralpak HSA (100×2.1 mm, 5 μm, Cat. No. HSA5LM-C0004), flow rate: 0.3 mL/min. Mobile phase: A—NH40Ac buffer (50 mM, pH=7), freshly prepared each day; B—isopropanol (HPLC grade); 0-3 min: isocratic 100% A, 0% B; 3-40 min: gradient to 80% A, 20% B; 40-60 min: isocratic 80% A, 20% B. Samples: 9 reference compounds, concentration 0.5 mg/mL in i-PrOH/NH4OAc (50 mM) pH=7, 50:50. […]
First reader's note: HSA % is human serum albumin binding; the structures of the compounds are drawn beside the table on the same sheet.

## COc1ncccc1[Si](F)(C(C)(C)C)C(C)(C)C [5-(Di-tert-butylfluorosilyl)-6-methoxypyridine]
[1]
  hydrolytic stability compared to phenyl-SiFA: higher hydrolytic stability than phenyl-SiFA

## CC(C)(C)OC(=O)NCCOCCn1nc(NCC(=O)O)cc1[Si](F)(C(C)(C)C)C(C)(C)C [PPI-24068, (1-(2-(2-((tert-butoxycarbonyl)amino)ethoxy)ethyl)-5-(di-tert-butylfluorosilyl)-1H-pyrazol-3-yl)glycine]
[2]
  stability on storage and in basic medium: some instability

## ^18F-Pyrazole-HetSiFA-Lu-DOTAGA-TATE [^18F-FTX-165]
[3]
  bone uptake: Little bone uptake

## COc1ccncc1[Si](F)(C(C)(C)C)C(C)(C)C [3-(Di-tert-butylfluorosilyl)-4-methoxypyridine]
[1]
  hydrolytic stability compared to phenyl-SiFA: slightly lower hydrolytic stability than phenyl-SiFA

## ^18F-Pyridine-HetSiFA-Lu-DOTAGA-TATE [FTX-164]
FIG. 26
  HSA %: 97.78%

## Lu-DOTAGA-^18F-Pyrazole-HetSiFA-PEG12-TATE [^18F-FTX-181]
[3]
  bone uptake: less bone uptake
[3]; healthy Balb/c female mice
  accumulation in the liver: low
  washout from non-targeted organs: washes out from non-targeted organs except for the gallbladder
